# Test results as given in the supplement of paper PMC9170038.
# Tested on: MS2 coat protein
# Assay: apparent KD of MS2 coat protein; higher = weaker reporter binding
# Settings: Eterna round: R107; input ligand: none
# Protocol: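 RNA-MaP round R107: designed RNA switches with theophylline, tryptophan, arginine or FMN aptamers are transcribed on-chip within common flanks. They are titrated with SNAP-549-labelled MS2 coat protein in RNA-MaP buffer (100 mM Tris pH 7.5, 80 mM KCl, 4 mM MgCl2), without ligand or with the indicated ligand. Median apparent KD per design.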
row,Sequence,apparent KD of MS2 coat protein [nM]
1,UAUCCACAUGAGGAUCACCCAUGUAGGGAAGGAGCGGUGGUUUCACCAGGUAGGUCGCCUUACUGAGGAGAACCGGUGGAAUCGU [Exclusion - Arginine A (Freestyle 29)],42.1
2,GUAAUUAUAAGAAGGAGCGUCGAAAAUGGGUAAACAUGAGGAUCACCCAUGUAAAGGGAACGACAGGUAGGUCGCUUAUGGUUAC [AstromonsSSArgB#24],200
3,UCGGGUUUGCGAAGGAGCGGGUAUGUUUUCUAGUGGAUCCUAACAUGAGGAUCACCCAUGUCCCAGGUAGGUCGCGCGGGUUUGG [12.W],102
4,UAUCCACAUGAGGAUCACCCAUGUUAGGAAGGAGCGGUGAAUGCACCAGGUAGGUCGCCUAGCUGAGGACUGUCGAUGGAUUCGU [Exclusion - Arginine A (Freestyle 18)],23.9
5,GGACUAACCAGAAGGAGCGGCACGCAGAAACUGCAAAUUCCUCCGCACGAGGAUCACCCGUGUCAGGUAGGUCGCUGGUUAGUCG [ArgBX 28],19.7
6,CGGUGUAGGGUUAAUAGGCUGAGUACAGAAGGAGCGCGAAUAAACGCAGGUAGGUCGCUGGCGAACAUGAGGAUCACCCAUGUAU [Same State Arginine A GF 30],18.4
7,AAGACGGUCGGAAGGAGCGGUACAUGAGGAUCACCCAUGUACUCCUGGGCAUCCGUAGUGUGCCAGGUAGGUCGCCGAUUGCGGG [XArg-B14],12.8
8,GGGUGUGAUCCGGAUACCAGCGAACAUGAGGAUCACCCAUGUGACCUGAGAUCGGCUCUACGCCCUUGGCAGCCGCGAUCGCAGG [Same State Theophylline B GF12],18.8
9,AGAAUGUAAUAUGGCAAAGUUAUAACCGAAGGAGCGCCGAAUAAGGCAGGUAGGUCGCGGAAACAUGAGGAUCACCCAUGUCCAU [Arginine A Same State; Euphoria Solution 3],17.3
10,AAACAUGAGGAUCACCCAUGUGGAACCGAAGGAGCGGCGCACAUGCCAGGUAGGUCGCGGGACAUGAGGACAUGAGGAUCACCCA [Same State Arginine A 3],135
11,AAUUCCUCACAUGAGGAUCACCCAUGUGAAGGAGCGCCGAAUAAGGCAGGUAGGUCGCACAUGGAAACCGCUACGAAAGUAGCAA,20.5
12,AAGUAAACAUGAGCAAAGCUCAUGUGCGAAGGAGCGGCGGAAACGCCAGGUAGGUCGCGCACAUGAGCAUCAGCCAUGUGUGUCA [Omei Arginine B SS A v1],37.9
13,UCCAUCGGCGGAAGCCGAUGGUUUACAGAAGGAGCGUGGAUUAACACAGGUAGGUCGCUGGACAUGAGGAUCACCCAUGUGAUAG [SSAA #6],60.4
14,GACGCAUGAGUUGUAACAGCUCAUGGGUCGCGAGGACCGGUACGGCCGCCACUCGGCUGUACAUGAGGAUCACCCAUGUCAGGGU [#1 Same State - Tryptophan A Attempt #29 (HarryS)],346
15,ACGUAAUGCAGAAGGAGCGUCAUUUUAAAACAUGAGGAUCACCCAUGUAAUAUUUUUGUGUGACAGGUAGGUCGCUGAAGUACGA [JR_SSArginiB_Sub007],13.4
16,AAACAACAUGAGGAUCACCCAUGUACCGAUACCAGCCAAAUAUAAGGCCCUUGGCAGCGGAGUAAAUCCGGAGGACAAUGGGUAA [Same State Theophylline A GF5],39
17,UGUACUAUGUGAAGGAGCGAGAAUCCUACAUGAGGAUCACCCAUGUAACAGCGAAAGCUGACUCAGGUAGGUCGCACAUAGUACU [ArgBS - First try],130
18,GGGUAAGAUCCGGAUACCAGCGAACAUGAGGAUCACCCAUGUGAAAUAAGAUAGACUAAACGCCCUUGGCAGCCGAAAUAGCGUU [Same State Theophylline B GF 4],46.6
19,CCGACGAUGACCAAAGGUCAGGAGUGCGCACGAGGACCGGUACGGCCGCCACUCGAGGAGUGGGACAUGAGGAUCACCCAUGUAA [X-TryptA-ms2@65-1],22.4
20,AUAAUAAAGACGGCCGCCACUAUAAACAUGAGGAACAUGAGGAUCACCCAUGUAUGAGGAUCACCUAGGACCGGGUCAAAUAUUA [AstrosExyTryB#3],49.4

# Same assay, conditions: Eterna round: R107; input ligand: theophylline 20 uM
row,Sequence,apparent KD of MS2 coat protein [nM]
1,AACAUGAGGAUCACCCAUGUUUUAUGGGAUACCAGAGACGAAAGUCUCCCUUGGCAGCCCAAGCUGCUCCAUACGAAAGUAUGGU [Theophylline A 17],18.2
2,GGAUAGAUAGGAGAUACCAGAUACAUAAACAUGAGGAUCACCCAUGUGUCUGCACUAAGUAUCCCUUGGCAGCUCGGAGAUCUGA [#17 Same State - Theophylline B],21.7
3,CAUAUAUAUUGAAGGAGCGUCGAAAAUGGGUAAACAUGAGGAUCACCCAUGUAAAGGGAACGACAGGUAGGUCGCAAUAUAUAUG [AstromonsSSArgB#4],199
4,AAACAUGAGGAUCACCCAUGUAUGUUAUUACGAGGACCGGUACGGCCGCCACUCGAUAGAGUAGAAGUAAAUUGUAAUUCAUGUU [JR_ExcTryptoA_Sub017],18.8
5,GACCGGUUAUAGUGCGAUUGUCUUGUGGAAGGAGCGCAGAGGACUGCAGGUAGGUCGCCACAUGAGGAUCACCCAUGUCAGGAUA [Tirevete],33.4
6,AUUCAUGGAAACAUGACAUAGGGAUCACUCCGAGGACCGGUACGGCCGCCACUCGCGAGGAGGCACAUGAGGAUCACCCAUGUUA [SS Tryp A #4],73.8
7,UAUCCACAUGAGGAUCACCCAUGUAGGGAAGGAGCGGUGGUUUCACCAGGUAGGUCGCCUUACUGAGGAGAACCGGUGGAAUCGU [Exclusion - Arginine A (Freestyle 29)],61.7
8,GUAAUUAUAAGAAGGAGCGUCGAAAAUGGGUAAACAUGAGGAUCACCCAUGUAAAGGGAACGACAGGUAGGUCGCUUAUGGUUAC [AstromonsSSArgB#24],245
9,UCGGGUUUGCGAAGGAGCGGGUAUGUUUUCUAGUGGAUCCUAACAUGAGGAUCACCCAUGUCCCAGGUAGGUCGCGCGGGUUUGG [12.W],291
10,UAUCCACAUGAGGAUCACCCAUGUUAGGAAGGAGCGGUGAAUGCACCAGGUAGGUCGCCUAGCUGAGGACUGUCGAUGGAUUCGU [Exclusion - Arginine A (Freestyle 18)],30.8
11,GGACUAACCAGAAGGAGCGGCACGCAGAAACUGCAAAUUCCUCCGCACGAGGAUCACCCGUGUCAGGUAGGUCGCUGGUUAGUCG [ArgBX 28],25.9
12,CGGUGUAGGGUUAAUAGGCUGAGUACAGAAGGAGCGCGAAUAAACGCAGGUAGGUCGCUGGCGAACAUGAGGAUCACCCAUGUAU [Same State Arginine A GF 30],24
13,AAGACGGUCGGAAGGAGCGGUACAUGAGGAUCACCCAUGUACUCCUGGGCAUCCGUAGUGUGCCAGGUAGGUCGCCGAUUGCGGG [XArg-B14],22.9
14,GGGUGUGAUCCGGAUACCAGCGAACAUGAGGAUCACCCAUGUGACCUGAGAUCGGCUCUACGCCCUUGGCAGCCGCGAUCGCAGG [Same State Theophylline B GF12],105
15,AGAAUGUAAUAUGGCAAAGUUAUAACCGAAGGAGCGCCGAAUAAGGCAGGUAGGUCGCGGAAACAUGAGGAUCACCCAUGUCCAU [Arginine A Same State; Euphoria Solution 3],19
16,AAACAUGAGGAUCACCCAUGUGGAACCGAAGGAGCGGCGCACAUGCCAGGUAGGUCGCGGGACAUGAGGACAUGAGGAUCACCCA [Same State Arginine A 3],207
17,AAUUCCUCACAUGAGGAUCACCCAUGUGAAGGAGCGCCGAAUAAGGCAGGUAGGUCGCACAUGGAAACCGCUACGAAAGUAGCAA,64.8
18,AAAGAUCGGAAACGAUCGGCGGCUUGGGCGCGAGGACCGGUACGGCCGCCACUCGGGAAACAUGAGGAUCACCCAUGUUGCUAGC [ETA NP+V+V2 #15],18.4
19,ACGACAUGAGGAUCACCCAUGUAAGGUGAUACCAGACGAAGUAAUGUCCCUUGGCAGCACACGCAUAGUUGCGAUUAUUGUACGA [JR_SSTheophyA_Sub007],522
